# Data from US20250163127A1.
# Columns and labels:
# CD28 (human) [1] = target: CD28 (human) (UniProt P10747); assay: flow cytometry, Jurkat cells (CD28)
# CTLA4 (human) = assay: flow cytometry, CHO cells stably expressing CTLA4
# PD-L1 (human) = assay: flow cytometry, CHO cells stably expressing PD-L1
# CD28 (human) [2] = target: CD28 (human) (UniProt P10747); assay: flow cytometry, transfected cells
# CTLA4 (human), sequence (chain, as listed by the source): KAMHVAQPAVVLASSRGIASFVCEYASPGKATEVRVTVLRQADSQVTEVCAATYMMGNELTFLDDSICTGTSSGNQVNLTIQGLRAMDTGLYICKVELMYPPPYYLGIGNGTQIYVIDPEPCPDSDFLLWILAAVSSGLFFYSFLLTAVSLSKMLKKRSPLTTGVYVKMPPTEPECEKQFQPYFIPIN
# PD-L1 (human), sequence (chain, as listed by the source): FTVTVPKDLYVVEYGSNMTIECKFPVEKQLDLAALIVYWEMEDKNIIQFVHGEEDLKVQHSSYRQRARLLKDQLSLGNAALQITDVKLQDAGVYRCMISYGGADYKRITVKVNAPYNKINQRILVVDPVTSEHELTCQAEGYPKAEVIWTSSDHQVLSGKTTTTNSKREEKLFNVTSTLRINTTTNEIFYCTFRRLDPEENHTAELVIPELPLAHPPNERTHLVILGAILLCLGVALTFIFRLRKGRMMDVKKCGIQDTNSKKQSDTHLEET
binder,measurement,setting,value
CD80 variant Q33L/E35D/T41S/M47V IgV-Fc (Fc fusion) VIHVTKEVKEVATLSCGHNVSVEELAQTRIYWLKDKKMVLSMMSGDVNIWPEYKNRTIFDITNNLSIVILALRPSDEGTYECVVLKYEKDAFKREHLAEVT,Fold change to WT,CD28 (human) [1],0.04 fold
same,MFI at 33.3 nM,CD28 (human) [1],287 MFI
same,Fold change to WT CD80,CTLA4 (human),0.08 fold
same,MFI at 33.3 nM,CTLA4 (human),14500 MFI
same,Fold change to WT,PD-L1 (human),5.52 fold
same,MFI at 33.3 nM,PD-L1 (human),43800 MFI
ICOSL ECD-Fc N84Q (Fc fusion) DTQEKEVRAMVGSDVELSCACPEGSRFDLNDVYVYWQTSESKTVVTYHIPQNSSLENVDSRYRNRALMSPAGMLRGDFSLRLFQVTPQDEQKFHCLVLSQSLGFQEVLSVEVTLHVAANFSVPVVSAPHSPSQDELTFTCTSINGYPRPNVYWINKTDNSLLDQALQNDTVFLNMRGLYDVVSVLRIARTPSVNIGCCIENVLLQQNLTVGSQTGNDIGERDKITENPVSTGEKNAAT,MFI,CD28 (human) [2],1760 MFI
ICOSL ECD-Fc N155Q/N207Q (Fc fusion) DTQEKEVRAMVGSDVELSCACPEGSRFDLNDVYVYWQTSESKTVVTYHIPQNSSLENVDSRYRNRALMSPAGMLRGDFSLRLFNVTPQDEQKFHCLVLSQSLGFQEVLSVEVTLHVAANFSVPVVSAPHSPSQDELTFTCTSINGYPRPNVYWIQKTDNSLLDQALQNDTVFLNMRGLYDVVSVLRIARTPSVNIGCCIENVLLQQQLTVGSQTGNDIGERDKITENPVSTGEKNAAT,MFI,CD28 (human) [2],1490 MFI
ICOSL ECD-Fc N52Q/N84Q (Fc fusion) DTQEKEVRAMVGSDVELSCACPEGSRFDLNDVYVYWQTSESKTVVTYHIPQQSSLENVDSRYRNRALMSPAGMLRGDFSLRLFQVTPQDEQKFHCLVLSQSLGFQEVLSVEVTLHVAANFSVPVVSAPHSPSQDELTFTCTSINGYPRPNVYWINKTDNSLLDQALQNDTVFLNMRGLYDVVSVLRIARTPSVNIGCCIENVLLQQNLTVGSQTGNDIGERDKITENPVSTGEKNAAT,MFI,CD28 (human) [2],1680 MFI
ICOSL ECD-Fc N84Q/N119Q (Fc fusion) DTQEKEVRAMVGSDVELSCACPEGSRFDLNDVYVYWQTSESKTVVTYHIPQNSSLENVDSRYRNRALMSPAGMLRGDFSLRLFQVTPQDEQKFHCLVLSQSLGFQEVLSVEVTLHVAAQFSVPVVSAPHSPSQDELTFTCTSINGYPRPNVYWINKTDNSLLDQALQNDTVFLNMRGLYDVVSVLRIARTPSVNIGCCIENVLLQQNLTVGSQTGNDIGERDKITENPVSTGEKNAAT,MFI,CD28 (human) [2],1490 MFI
ICOSL ECD-Fc N119Q/N207Q (Fc fusion) DTQEKEVRAMVGSDVELSCACPEGSRFDLNDVYVYWQTSESKTVVTYHIPQNSSLENVDSRYRNRALMSPAGMLRGDFSLRLFNVTPQDEQKFHCLVLSQSLGFQEVLSVEVTLHVAAQFSVPVVSAPHSPSQDELTFTCTSINGYPRPNVYWINKTDNSLLDQALQNDTVFLNMRGLYDVVSVLRIARTPSVNIGCCIENVLLQQQLTVGSQTGNDIGERDKITENPVSTGEKNAAT,MFI,CD28 (human) [2],1860 MFI
ICOSL ECD-Fc N119Q/N168Q (Fc fusion) DTQEKEVRAMVGSDVELSCACPEGSRFDLNDVYVYWQTSESKTVVTYHIPQNSSLENVDSRYRNRALMSPAGMLRGDFSLRLFNVTPQDEQKFHCLVLSQSLGFQEVLSVEVTLHVAAQFSVPVVSAPHSPSQDELTFTCTSINGYPRPNVYWINKTDNSLLDQALQQDTVFLNMRGLYDVVSVLRIARTPSVNIGCCIENVLLQQNLTVGSQTGNDIGERDKITENPVSTGEKNAAT,MFI,CD28 (human) [2],2530 MFI
ICOSL ECD-Fc N52Q/N84Q/N119Q/N207Q (Fc fusion) DTQEKEVRAMVGSDVELSCACPEGSRFDLNDVYVYWQTSESKTVVTYHIPQQSSLENVDSRYRNRALMSPAGMLRGDFSLRLFQVTPQDEQKFHCLVLSQSLGFQEVLSVEVTLHVAAQFSVPVVSAPHSPSQDELTFTCTSINGYPRPNVYWINKTDNSLLDQALQNDTVFLNMRGLYDVVSVLRIARTPSVNIGCCIENVLLQQQLTVGSQTGNDIGERDKITENPVSTGEKNAAT,MFI,CD28 (human) [2],602 MFI
ICOSL ECD-Fc N119Q/N168Q/N207Q (Fc fusion) DTQEKEVRAMVGSDVELSCACPEGSRFDLNDVYVYWQTSESKTVVTYHIPQNSSLENVDSRYRNRALMSPAGMLRGDFSLRLFNVTPQDEQKFHCLVLSQSLGFQEVLSVEVTLHVAAQFSVPVVSAPHSPSQDELTFTCTSINGYPRPNVYWINKTDNSLLDQALQQDTVFLNMRGLYDVVSVLRIARTPSVNIGCCIENVLLQQQLTVGSQTGNDIGERDKITENPVSTGEKNAAT,MFI,CD28 (human) [2],921 MFI
ICOSL ECD-Fc N84Q/N168Q/N207Q (Fc fusion) DTQEKEVRAMVGSDVELSCACPEGSRFDLNDVYVYWQTSESKTVVTYHIPQNSSLENVDSRYRNRALMSPAGMLRGDFSLRLFQVTPQDEQKFHCLVLSQSLGFQEVLSVEVTLHVAANFSVPVVSAPHSPSQDELTFTCTSINGYPRPNVYWINKTDNSLLDQALQQDTVFLNMRGLYDVVSVLRIARTPSVNIGCCIENVLLQQQLTVGSQTGNDIGERDKITENPVSTGEKNAAT,MFI,CD28 (human) [2],737 MFI
ICOSL ECD-Fc N168Q (Fc fusion) DTQEKEVRAMVGSDVELSCACPEGSRFDLNDVYVYWQTSESKTVVTYHIPQNSSLENVDSRYRNRALMSPAGMLRGDFSLRLFNVTPQDEQKFHCLVLSQSLGFQEVLSVEVTLHVAANFSVPVVSAPHSPSQDELTFTCTSINGYPRPNVYWINKTDNSLLDQALQQDTVFLNMRGLYDVVSVLRIARTPSVNIGCCIENVLLQQNLTVGSQTGNDIGERDKITENPVSTGEKNAAT,MFI,CD28 (human) [2],1410 MFI
ICOSL ECD-Fc N52Q/N119Q/N155Q (Fc fusion) DTQEKEVRAMVGSDVELSCACPEGSRFDLNDVYVYWQTSESKTVVTYHIPQQSSLENVDSRYRNRALMSPAGMLRGDFSLRLFNVTPQDEQKFHCLVLSQSLGFQEVLSVEVTLHVAAQFSVPVVSAPHSPSQDELTFTCTSINGYPRPNVYWIQKTDNSLLDQALQNDTVFLNMRGLYDVVSVLRIARTPSVNIGCCIENVLLQQNLTVGSQTGNDIGERDKITENPVSTGEKNAAT,MFI,CD28 (human) [2],552 MFI
